Here are results for two substances from article PMC7274078, “Brain Endothelial Cells Regulate Glucagon-Like Peptide 1 Entry Into the Brain via a Receptor-Mediated Process” (Frontiers in Physiology, 2020).

One data set has as its system DPP4. The note with it: no reference given; cited from earlier work. The text has this:
GLP-1 receptors are expressed in multiple brain areas in rodents, primates, and humans and they are involved in learning, neuroprotection and regulation of appetite and satiety ([Wei and Mojsov, 1995]; [During et al., 2003]; [Richards et al., 2014]). Global knockout of the GLP-1 receptor in mice impairs synaptic plasticity and memory formation ([Abbas et al., 2009]). […] Indeed, pre-treatment of animals w ...

The conditions of data set [1]: in vivo; cited from earlier work. The text has this: Peptides cross the BBB via transcellular vesicular pathways that may be either constitutive or regulated. […] This is similar to leptin ([Banks et al., 1996]) and insulin ([Gray et al., 2014]; [Meijer et al., 2016]), two appetite regulating hormones secreted peripherally that enter into the brain. || The central actions of GLP-1 and its analogs have been well recognized. GLP-1 analogs have been repeatedly shown to cross the BBB, stimulate brain GLP-1 receptors, and modulate mitochondrial function, protein aggregation, neuroinflammation, synaptic plasticity, learning and memory in experimental models of Parkinson's and Alzheimer's disease ([Athauda and Foltynie, 2016]). Our observation that peripherally administrated GLP-1 and exendin-4 rapidly enter various brain regions is consistent with prior findings that peripherally injected GLP-1 analogs can easily enter the brain ([[…] and Akers ...

Data set [2] concerns Rat brain microvascular endothelial cells (RBMECs). Briefly: Endothelial cell uptake of GLP-1-FAM. The settings on record: confocal fluorescence. In kind it is cell-based. The procedure:
Rat brain microvascular endothelial cells (RBMECs; Cell Applications, San Diego, CA, United States) were cultured on a cover slip in rat brain endothelial cell growth medium. After reaching confluency, cells were pre-treated with vehicle (PSS buffer), exendin 9-39 (10 nM) or H89 (Sigma-Aldrich, St. Louis, MO, United States) (10 μM) for 30 min or forskolin (Sigma-Aldrich, St. Louis, MO, United States) (10 μM) for 5 min. Cells were then incubated with GLP-1-FAM at either 10, 100 or 1,000 pM for 3 min at 37°C. DAPI was used to stain the nucleus. After fixation and washing three times with cold TBST (5 min each time), cell images were captured using confocal microscope and fluorescence intensity measured using ImageJ software^1. FAM signal from surface binding of FAM was examined by incubating cells with GLP-1-FAM at 4 or 37°C for 3 min, or free FAM (10, 100, and 1,000 pM) at 37°C for 3 min.
FIGURE 5 GLP-1 uptake by RBMECs is GLP-1 receptor and PKA dependent. RBMECs were pretreated with vehicle (PSS buffer, A,E,I), Exendin 9-39 (10 nM, B,F,J) or H89 (10 μM, C,G,K) for 30 min. Cells were then incubated with GLP-1-FAM at 10, 100 pM or 1 nM for 3 min. DAPI was used to stain the nucleus. Images were captured using confocal microscope. Fluorescence density was analyzed using ImageJ. (D,H,L) Quantitative analysis (n = 3, *p < 0.01, vs. vehicle, Student’s t test). GLP-1R – GLP-1 receptor.
FIGURE 6 cAMP agonist increases GLP-1 uptake by RBMECs. (A) RBMECs were incubated with GLP-1-FAM at 10 pM for 3 min with or without 10 μM forskolin. DAPI was used to stain the nucleus. Images was captured using confocal microscope. Fluorescence density was analyzed using ImageJ. (B) quantitative analysis of the images (n = 6, *p < 0.05, vs. vehicle, Student’s t test).

The nature of data set [3]: Circulating GLP-1-FAM / exendin-4-FAM uptake by the brain. The note with it: rat, systemic infusion 30 pmol/kg/min for 10 min; cerebellum, cortex, hippocampus, hypothalamus, brain stem; FAM fluorescence in lysates corrected for vascular space with Dextran-TRITC; n = 7 (GLP-1-FAM), n = 6 (exendin-4-FAM). In kind it is in vivo. Here is the method: Rats received a systemic infusion of either saline or exendin-(9-39) (GLP-1 receptor antagonist, 30 nmol/kg/min, Abcam, Cambridge, United Kingdom) via the jugular vein catheter for 20 min (Figure 1A). In the last 10 min, rats also received 30 pmol/kg/min of either GLP-1-FAM (AnaSpec, Fremont, CA, United States) or exendin-4-FAM (AnaSpec, Fremont, CA, United States) together with Dextran-TRITC (Sigma-Aldrich, St. Louis, MO, United States) (70 kD, vascular space marker, 30 pmol/kg/min). […] After collecting plasma samples, rats were sacrificed via anesthetic overdose and various brain regions (cerebellum, cortex, hippocampus, hypothalamus, and brain stem) collected, homogenized and lysed in lysis buffer. Fluorescence from TRITC and FAM were measured in both plasma and brain lysates. Protein concentrations were determined in the brain lysates. Brain uptake of GLP-1-FAM and exendin-4-FAM were calculated using the following formula:
Tissue fluorescence [FAM]/Tissue weight (μg)−TissueFluorescence [TRITC]/Weight(μg)/PlasmaFluorescence [TRITC]/200(μL)×Plasma Fluorescence [FAM]/200μL
FIGURE 1 GLP-1 and GLP-1 analog exendin-4 enter various brain regions via GLP-1 receptor-mediated process. (A) Protocol. […]

The subject of data set [4] is RBMEC and astrocyte barrier. The data set is described as follows: Trans-endothelial GLP-1 transport (Transwell artificial BBB). In kind it is in vitro ADME, rat. Here is the method:
The trans-endothelial GLP-1 transport was examined using a Transwell system that mimics the BBB in that RBMECs were co-cultured with astrocytes as illustrated in Figure 7A and previously described ([Gaillard et al., 2001]). Briefly, astrocytes (Thermo Fisher Scientific, Waltham, MA, United States) were seeded on the bottom and RBMECs were then seeded onto the top of the Transwell insert (6.5 mm diameter, 1 μm pore size, polyester membrane; Corning, Corning, NY, United States). Trans-endothelial electrical resistance was monitored using a volt-ohmmeter (EVOM; WPI, Sarasota, FL, United States) and EndOhm chamber (EndOhm; WPI). When the trans-endothelial electrical resistance reached its peak, the insert with double cell layers was washed twice at 37°C with PBS buffer. […] The amount of GLP-1-FAM or inulin-FITC transported to the lower chamber was determined by measuring FAM and FITC fluorescence in the lower chamber at 5, 10, and 30 min. Inulin-FITC transport was used to correct for paracellular transport and the amount of trans-endothelial transport of GLP-1-FAM was calculated using the formula:
Transcellular transport (%)=Fluorescence [FAM]/Reference [FAM]×100−Fluorescence [FITC]/Reference [FITC]×100
Reference refers to fluorescence in the lower chamber at the specified time point when the Transwell inserts had no cells seeded. To determine if this trans-endothelial transport is dose-dependent, 10, 100, and 1,000 pM GLP-1-FAM or inulin-FITC (with DDP-4 inhibitor) was loaded into the upper chamber, the amount of GLP-1-FAM or inulin-FITC in the lower chamber was determined at 10 min, and trans-endothelial transport of GLP-1 was calculated.
FIGURE 7 Trans-endothelial transport of GLP-1 is a GLP-1 receptor-mediated process. […] GLP-1-FAM or inulin-FITC transport to the lower chamber was determined by measuring FAM and FITC fluorescence in the lower chamber. […]

For the substance exendin-4, in the data set with DPP4, the half-life is 1.5 h and the “stability to DPP4” value is reported as “DPP4 resistant”. In addition, in data set [1], the “time to detection in the brain after intravenous injection” value was at most 5 min.
As for GLP-1-FAM: FAM-labeled GLP-1 (AnaSpec), the RBMEC uptake entry in data set [2] (10, 100 and 1,000 pM, 3 min at 37°C, ImageJ) is on record as “actively took up”. In addition, the “RBMEC uptake at 4°C” value in data set [2] (3 min at 4°C) is on record as “did not take up”. For the same substance, the “FAM-labeled peptide detected in brain regions (brain uptake)” value in data set [3] is given as “detected in various brain regions”. In addition, the “concentration dependence of trans-endothelial transport” value in data set [4] (Transwell, 10, 100 and 1000 pM, 10 min, with DPP4 inhibitor, n = 6, p = 0.37) is given as “does not appear to be concentration dependent”. For the same substance, the “transport across the RBMEC and astrocyte barrier, time course” value in data set [4] (Transwell, RBMECs co-cultured with astrocytes, 100 pM in upper chamber with DPP4 inhibitor, lower chamber fluorescence at 5, 10 and 30 min, corrected for paracellular transport with inulin-FITC, n = 7) is listed as “crossed the barrier in a time-dependent fashion”.
